Target: N-mEGFP full length (nucleocapsid) (SARS-CoV-2, UniProt P0DTC9 1-419)
Assay: EMSA; 200 nM RNA; N-mEGFP titrated
Details: protein: recombinant; tags: C-terminal mEGFP; pET28a(+), Ni-purified (His tag implied); chain copies: 2

B1: 55-nt vRNA (5' UTR segment) (ssRNA)
RNA: AUUAAAGGUUUAUACCUUCCCAGGUAACAAACCAACCAACUUUCGAUCUCUUGUA
  binding result: binds
